The target in experiment [1] is T1, Native complement component C3, purified from human plasma (human, UniProt P01024 23-1663, intact thioester (native form)). Kind of experiment: cell-based or functional assay.
Experiment [2] deals with T2, Recombinant C3dg (E. coli, pET30 vector with S-tag) (human, UniProt P01024 955-1303).
T2 construct: domain: C3dg; not shown: S-tag from the pET30 vector
Kind of experiment: SPR (Biacore 2000), Efb-C immobilized, C3dg as analyte, 1:1 Langmuir model.

Experiment [3] concerns the target T3, Hydrolyzed C3 (C3(H2O)) (human, UniProt P01024 23-1663, thioester hydrolyzed).
T3 construct: mature; Prepared according to established protocols
In words: SPR (Biacore 2000), Efb-C immobilized, C3(H2O) as analyte, 1:1 Langmuir model.
Protocol: (§1) Surface Plasmon Resonance of Efb Binding to Components of the Complement System. All SPR experiments were performed on a Biacore X (ranking) or Biacore 2000 (kinetic profiling) biosensor at 25° C. using 10 mM PBS-T (10 mM sodium phosphate, pH 7.4, 150 mM NaCl, 0.005% Tween-20) as running buffer. […] A separate flow cell was only activated and deactivated, and served as reference surface. 200 nM solutions of the C3 fragments were injected for 3 min at a flow rate of 20 μl/min with a dissociation phase of 3 min. The Efb-C surface was regenerated with two consecutive 30 s pulses of 0.1% SDS and re-equilibrated in running buffer for 10 min. For the kinetic SPR studies, Efb-C was immobilized at lower density (200 RU) and the flow rate was kept at 30 μl/ml in order to avoid mass transport effects. C3 fragments were screened as threefold dilution series (67-0.09 nM; 200-0.09 nM for C3b) in running buffer with injection and dissociation phases of 5 and 10 min, respectively. In order to ensure full reconstitution of the surface after regeneration, the equilibration phase was increased to 30 min. Three buffer blanks were included in each analysis and their average signals were subtracted from the processed sample responses (double referencing). […] The equilibrium dissociation constant (Kd) was calculated from the kinetic parameters as Kd=koff/kₒₙ. […]

Experiment [4] addresses T3, Hydrolyzed C3 (C3(H2O)). In words: SPR (Biacore 2000), Efb-C immobilized, C3(H2O) as analyte, 1:1 Langmuir model; Kd=koff/kon.
Experiment [5] addresses T4, C3b (human, UniProt P01024 23-667; P01024 749-1663, limits assumed).
T4 construct: domain: C3b; Prepared according to established protocols
Kind of experiment: SPR (Biacore 2000), Efb-C immobilized, C3b as analyte, 1:1 Langmuir model.
Protocol: as §1

Experiment [6] has as its target T1, Native complement component C3, …. In words: SPR (Biacore 2000), Efb-C immobilized, native C3 as analyte, surface heterogeneity model, primary site (~90% of the total binding).
In experiment [7] the target is T5, Fibrinogen (Fg) from human serum (human, UniProt P02671 20-644; P02675 31-491; P02679 27-437).
T5 construct: The three-chain make-up is from general knowledge; also called Fg species
T5 sequence 1: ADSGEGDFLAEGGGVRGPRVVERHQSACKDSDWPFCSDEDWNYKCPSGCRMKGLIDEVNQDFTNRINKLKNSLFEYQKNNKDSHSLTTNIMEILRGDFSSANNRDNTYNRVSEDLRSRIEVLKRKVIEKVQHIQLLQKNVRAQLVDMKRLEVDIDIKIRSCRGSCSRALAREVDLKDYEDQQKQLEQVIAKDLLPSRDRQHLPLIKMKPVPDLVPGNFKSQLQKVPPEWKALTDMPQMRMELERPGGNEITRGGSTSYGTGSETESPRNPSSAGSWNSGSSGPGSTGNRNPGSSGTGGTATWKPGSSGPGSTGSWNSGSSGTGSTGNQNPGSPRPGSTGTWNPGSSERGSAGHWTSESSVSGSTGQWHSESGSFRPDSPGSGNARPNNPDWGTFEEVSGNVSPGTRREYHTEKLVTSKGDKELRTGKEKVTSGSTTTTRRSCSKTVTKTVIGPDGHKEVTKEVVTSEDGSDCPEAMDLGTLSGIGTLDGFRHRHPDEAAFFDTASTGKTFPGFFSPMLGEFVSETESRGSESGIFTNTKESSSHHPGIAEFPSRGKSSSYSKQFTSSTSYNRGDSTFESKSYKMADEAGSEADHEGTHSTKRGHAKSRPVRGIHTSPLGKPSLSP
T5 sequence 2: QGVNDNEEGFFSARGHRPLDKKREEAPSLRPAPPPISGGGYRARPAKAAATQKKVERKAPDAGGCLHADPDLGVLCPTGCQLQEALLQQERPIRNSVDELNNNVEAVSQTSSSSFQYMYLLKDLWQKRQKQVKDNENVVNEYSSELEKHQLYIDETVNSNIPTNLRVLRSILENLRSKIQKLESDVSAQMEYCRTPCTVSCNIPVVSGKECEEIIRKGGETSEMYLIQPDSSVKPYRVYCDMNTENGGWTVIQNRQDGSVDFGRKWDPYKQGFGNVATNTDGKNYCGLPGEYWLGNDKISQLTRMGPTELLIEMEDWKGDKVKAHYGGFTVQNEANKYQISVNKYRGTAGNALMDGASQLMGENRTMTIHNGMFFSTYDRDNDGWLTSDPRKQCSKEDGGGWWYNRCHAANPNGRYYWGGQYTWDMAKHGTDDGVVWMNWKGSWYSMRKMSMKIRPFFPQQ
T5 sequence 3: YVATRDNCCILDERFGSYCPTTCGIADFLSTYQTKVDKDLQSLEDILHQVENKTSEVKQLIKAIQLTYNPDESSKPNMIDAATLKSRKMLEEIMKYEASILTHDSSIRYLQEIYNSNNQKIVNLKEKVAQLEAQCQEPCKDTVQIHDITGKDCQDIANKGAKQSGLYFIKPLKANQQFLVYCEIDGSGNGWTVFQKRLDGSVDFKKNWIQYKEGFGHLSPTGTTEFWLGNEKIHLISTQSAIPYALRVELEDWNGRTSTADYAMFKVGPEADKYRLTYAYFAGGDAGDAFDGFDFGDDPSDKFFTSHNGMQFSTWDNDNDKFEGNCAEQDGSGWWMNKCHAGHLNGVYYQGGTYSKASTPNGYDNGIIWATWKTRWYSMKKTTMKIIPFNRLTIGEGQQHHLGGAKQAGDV
In words: pull-down from human serum on derivatized sepharose, SDS-PAGE and LC-MS/MS.

Experiment [8] deals with T1, Native complement component C3, …. Kind of experiment: SPR (Biacore 2000), Efb-C immobilized, native C3 as analyte, surface heterogeneity model, primary site; Kd=koff/kon.
The target of experiment [9] is T6, C3c (human, UniProt P01024 23-667; P01024 749-954; P01024 1321-1663).
T6 construct: domain: C3c; Prepared according to established protocols; also called C3c fragment
T6 sequence (P01024 23-667 limits assumed, chain 1 of 3): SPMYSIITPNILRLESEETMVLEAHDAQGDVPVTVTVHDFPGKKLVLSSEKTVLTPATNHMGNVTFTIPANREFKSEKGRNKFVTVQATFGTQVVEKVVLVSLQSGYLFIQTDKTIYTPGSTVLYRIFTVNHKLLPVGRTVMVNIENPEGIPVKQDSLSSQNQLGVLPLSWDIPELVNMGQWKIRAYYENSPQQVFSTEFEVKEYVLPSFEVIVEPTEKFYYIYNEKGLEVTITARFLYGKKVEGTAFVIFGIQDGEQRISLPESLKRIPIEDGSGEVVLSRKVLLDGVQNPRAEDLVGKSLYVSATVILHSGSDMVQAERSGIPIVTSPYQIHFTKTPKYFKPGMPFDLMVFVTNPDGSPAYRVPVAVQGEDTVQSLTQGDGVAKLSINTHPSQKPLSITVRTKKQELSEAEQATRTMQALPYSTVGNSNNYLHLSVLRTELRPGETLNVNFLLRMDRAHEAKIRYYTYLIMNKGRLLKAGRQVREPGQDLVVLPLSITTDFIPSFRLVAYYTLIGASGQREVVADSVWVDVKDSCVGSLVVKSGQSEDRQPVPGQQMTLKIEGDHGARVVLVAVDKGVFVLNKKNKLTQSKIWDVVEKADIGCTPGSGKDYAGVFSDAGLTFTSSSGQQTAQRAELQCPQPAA
T6 sequence (P01024 749-954 limits assumed, chain 2 of 3): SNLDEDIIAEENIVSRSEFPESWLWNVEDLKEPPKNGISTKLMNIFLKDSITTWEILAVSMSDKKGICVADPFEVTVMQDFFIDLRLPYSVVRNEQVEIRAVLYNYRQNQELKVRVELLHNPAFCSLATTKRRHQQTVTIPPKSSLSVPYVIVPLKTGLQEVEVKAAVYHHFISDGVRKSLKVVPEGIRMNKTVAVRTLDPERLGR
T6 sequence (P01024 1321-1663 limits assumed, chain 3 of 3): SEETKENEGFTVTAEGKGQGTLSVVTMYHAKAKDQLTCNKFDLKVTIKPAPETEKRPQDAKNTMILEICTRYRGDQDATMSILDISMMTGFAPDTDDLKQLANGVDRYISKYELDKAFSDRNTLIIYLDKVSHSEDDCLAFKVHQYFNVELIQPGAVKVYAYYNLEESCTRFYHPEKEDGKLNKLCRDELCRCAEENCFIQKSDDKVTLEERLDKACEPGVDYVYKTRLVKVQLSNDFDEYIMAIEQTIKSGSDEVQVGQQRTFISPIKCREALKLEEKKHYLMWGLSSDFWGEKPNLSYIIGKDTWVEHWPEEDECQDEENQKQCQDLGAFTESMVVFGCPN
In words: SPR, Efb-C immobilized, C3c injected, response divided by MW.

Experiment [10] deals with T2, Recombinant C3dg (E. coli, pET30 vector …). In words: SPR (Biacore 2000), Efb-C immobilized, C3dg as analyte, 1:1 Langmuir model; Kd=koff/kon.
In experiment [11] the target is T4, C3b. Kind of experiment: SPR (Biacore 2000), Efb-C immobilized, C3b as analyte, 1:1 Langmuir model; Kd=koff/kon.
Experiment [12] has as its target T4, C3b. Kind of experiment: SPR kinetics, Efb-C immobilized.
Experiment [13] deals with T3, Hydrolyzed C3 (C3(H2O)). In words: SPR kinetics, Efb-C immobilized.

T2 sequence (P01024 955-1303): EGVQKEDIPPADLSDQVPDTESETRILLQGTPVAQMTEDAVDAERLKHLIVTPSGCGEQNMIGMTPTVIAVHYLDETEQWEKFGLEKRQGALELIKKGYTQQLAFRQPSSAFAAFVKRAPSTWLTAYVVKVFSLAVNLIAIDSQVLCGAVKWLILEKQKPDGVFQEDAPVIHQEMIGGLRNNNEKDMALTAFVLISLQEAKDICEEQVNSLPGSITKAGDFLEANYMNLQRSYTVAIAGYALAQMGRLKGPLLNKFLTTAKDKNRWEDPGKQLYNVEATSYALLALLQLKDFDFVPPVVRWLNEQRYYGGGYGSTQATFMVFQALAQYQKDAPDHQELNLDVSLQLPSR
T3 sequence (P01024 23-1663): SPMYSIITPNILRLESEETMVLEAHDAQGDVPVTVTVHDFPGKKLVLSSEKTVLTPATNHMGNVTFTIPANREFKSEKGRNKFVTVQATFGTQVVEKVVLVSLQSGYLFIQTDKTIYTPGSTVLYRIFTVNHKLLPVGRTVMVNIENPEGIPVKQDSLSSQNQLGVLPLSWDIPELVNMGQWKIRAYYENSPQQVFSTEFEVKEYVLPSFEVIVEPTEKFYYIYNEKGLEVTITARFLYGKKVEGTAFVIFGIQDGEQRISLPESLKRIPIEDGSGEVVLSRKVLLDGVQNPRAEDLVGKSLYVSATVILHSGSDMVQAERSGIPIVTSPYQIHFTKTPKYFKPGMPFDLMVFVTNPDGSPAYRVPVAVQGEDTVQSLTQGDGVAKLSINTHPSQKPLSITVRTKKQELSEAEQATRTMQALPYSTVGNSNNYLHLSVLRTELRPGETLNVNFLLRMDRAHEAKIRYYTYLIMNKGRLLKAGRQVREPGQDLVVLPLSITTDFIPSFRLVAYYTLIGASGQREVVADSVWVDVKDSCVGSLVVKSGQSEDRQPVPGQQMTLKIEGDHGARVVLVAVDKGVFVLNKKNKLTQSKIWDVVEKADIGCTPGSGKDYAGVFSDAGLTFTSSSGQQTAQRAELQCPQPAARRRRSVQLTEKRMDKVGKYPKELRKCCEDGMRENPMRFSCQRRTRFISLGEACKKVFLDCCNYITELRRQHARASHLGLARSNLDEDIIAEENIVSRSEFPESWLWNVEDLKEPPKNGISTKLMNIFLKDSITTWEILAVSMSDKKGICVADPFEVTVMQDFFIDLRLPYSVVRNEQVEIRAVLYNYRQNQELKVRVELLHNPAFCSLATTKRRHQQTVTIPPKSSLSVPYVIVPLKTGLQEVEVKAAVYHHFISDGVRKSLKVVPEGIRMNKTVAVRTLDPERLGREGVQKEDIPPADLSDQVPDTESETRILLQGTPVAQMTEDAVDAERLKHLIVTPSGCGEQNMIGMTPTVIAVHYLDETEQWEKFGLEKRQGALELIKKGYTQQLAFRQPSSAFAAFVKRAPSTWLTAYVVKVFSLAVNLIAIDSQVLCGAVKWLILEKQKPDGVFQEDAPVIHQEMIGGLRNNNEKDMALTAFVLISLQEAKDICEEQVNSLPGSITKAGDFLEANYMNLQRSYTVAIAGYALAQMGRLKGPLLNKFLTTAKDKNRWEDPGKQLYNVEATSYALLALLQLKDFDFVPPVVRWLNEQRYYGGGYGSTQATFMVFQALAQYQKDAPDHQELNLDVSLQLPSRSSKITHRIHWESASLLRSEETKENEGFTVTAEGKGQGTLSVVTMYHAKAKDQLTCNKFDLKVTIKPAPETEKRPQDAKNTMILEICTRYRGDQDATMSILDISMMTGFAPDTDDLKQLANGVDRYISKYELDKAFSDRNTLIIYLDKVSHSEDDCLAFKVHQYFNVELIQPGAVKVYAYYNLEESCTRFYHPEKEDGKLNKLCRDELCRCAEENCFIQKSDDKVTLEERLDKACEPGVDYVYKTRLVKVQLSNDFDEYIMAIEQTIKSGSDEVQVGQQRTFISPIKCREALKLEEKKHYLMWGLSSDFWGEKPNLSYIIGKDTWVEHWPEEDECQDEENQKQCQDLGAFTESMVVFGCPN
T1 sequence (P01024 23-1663): as above
T4 sequence (P01024 23-667 limits assumed, chain 1 of 2): as the sequence (P01024 23-667 limits assumed, chain 1 of 3) above
T4 sequence (P01024 749-1663 limits assumed, chain 2 of 2): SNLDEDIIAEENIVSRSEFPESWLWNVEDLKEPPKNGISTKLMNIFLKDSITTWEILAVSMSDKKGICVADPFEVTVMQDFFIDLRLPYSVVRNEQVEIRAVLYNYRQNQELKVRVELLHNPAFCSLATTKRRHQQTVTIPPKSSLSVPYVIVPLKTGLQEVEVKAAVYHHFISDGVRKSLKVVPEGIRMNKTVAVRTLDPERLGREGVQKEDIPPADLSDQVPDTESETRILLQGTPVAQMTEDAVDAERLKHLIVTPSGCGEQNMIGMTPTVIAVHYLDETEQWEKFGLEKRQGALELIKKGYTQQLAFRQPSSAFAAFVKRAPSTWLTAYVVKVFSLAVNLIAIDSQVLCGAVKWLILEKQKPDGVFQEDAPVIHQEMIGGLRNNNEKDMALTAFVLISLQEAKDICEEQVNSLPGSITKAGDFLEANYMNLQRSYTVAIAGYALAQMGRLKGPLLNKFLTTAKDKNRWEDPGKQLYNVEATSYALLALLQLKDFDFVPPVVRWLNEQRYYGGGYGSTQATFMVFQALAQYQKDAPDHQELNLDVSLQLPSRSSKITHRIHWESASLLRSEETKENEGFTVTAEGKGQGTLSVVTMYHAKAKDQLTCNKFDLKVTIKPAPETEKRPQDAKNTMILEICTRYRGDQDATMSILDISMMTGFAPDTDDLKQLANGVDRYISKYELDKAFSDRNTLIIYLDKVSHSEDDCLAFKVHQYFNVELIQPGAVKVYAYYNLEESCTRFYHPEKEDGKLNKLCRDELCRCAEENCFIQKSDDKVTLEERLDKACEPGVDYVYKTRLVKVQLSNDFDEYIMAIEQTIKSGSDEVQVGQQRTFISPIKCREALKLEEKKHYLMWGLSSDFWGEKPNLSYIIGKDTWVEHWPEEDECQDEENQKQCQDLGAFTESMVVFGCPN

B1: Extracellular fibrinogen-binding protein (Efb), recombinant full-length, S. aureus strain Mu50 (other)
chain: ASEGYGPREKKPVSINHNIVEYNDGTFKYQSRPKFNSTPKYIKFKHDYNILEFNDGTFEYGARPQFNKPAAKTDATIKKEQKLIQAQNLVREFEKTHTVSAHRKAQKAVNLVSFEYKVKKMVLQERIDNVLKQGLVR
For the molecule B1, in experiment [1], the “IC50, inhibition of the alternative pathway of complement activation (ELISA of C3b deposition, human serum)” value was about 560 nM and the “molar excess over C3 needed to reach an IC50 concentration, classical pathway” value came out at 50 fold molar excess over C3.

B2: Efb-C, C-terminal C3-binding domain of Efb from S. aureus strain Mu50 (other)
chain: FNKPAAKTDATIKKEQKLIQAQNLVREFEKTHTVSAHRKAQKAVNLVSFEYKVKKMVLQERIDNVLKQGLVR
notes: Monomer in solution; also called wild-type Efb-C
On to B2, for which the koff amounted to 0.000218 s⁻¹ in experiment [2], 0.000169 s⁻¹ in [3], 0.000209 s⁻¹ in [5] and 9.9e-05 s⁻¹ in experiment [6]. In addition, the association rate constant (kon) in [2] is 284000 M⁻¹ s⁻¹; in [3], 88900 M⁻¹ s⁻¹; in experiment [5], 23900 M⁻¹ s⁻¹; in experiment [6], 36000 M⁻¹ s⁻¹. For the same molecule, the Kd is 1.9 nM in experiment [4], 2.8 nM in experiment [8], 0.8 nM in experiment [10] and 8.8 nM in [11]. In addition, the figures for the binding result in [7] and in experiment [9] were “no binding (tested: 1:100 dilution of human serum)” and “no binding (tested: 200 nM)”, respectively. Further, the “IC50, inhibition of the alternative pathway of complement activation (ELISA of C3b deposition, human serum)” value in experiment [1] was about 410 nM. Moreover, the “fold decrease in affinity compared to native C3 and C3(H2O)” value in [12] was about 3 fold. Also, in experiment [12], the “fold difference in affinity to C3dg” value is about 10 fold. The “dissociation rate relative to that of native C3” value in [13] was over 70 % greater.

B3: SAV1155/Ehp (Efb Homologous Protein), recombinant mature form, S. aureus strain Mu50 (other)
chain: QTKNVEAAKKYDQYQTNFKKQVNKKVVDAQKAVNLFKRTRTVATHRKAQRAVNLIHFQHSYEKKKLQRQIDLVLKYNTLK
notes: A recombinant form corresponding to the predicted mature protein
As for B3, the binding result in experiment [7] is “no binding (tested: 1:100 dilution of human serum)”. In [1], the “IC50, inhibition of classical activation of the complement pathway (ELISA detecting fixed C3b to Ag-Ab complex)” value was 590 nM; the “classical pathway inhibition relative to Efb, on a molar basis” value was about 2 fold; the “classical pathway inhibition relative to Efb-C, on a molar basis” value was about 50 fold.
